Test results reported in PMC8771830, “Multimerization of the GATA4 transcription factor regulates transcriptional activity and cardiomyocyte hypertrophic response” (International Journal of Biological Sciences, 2022).

Molecular target: the molecule itself
Experiment: SEC; purified GATA4 on Superdex200 Increase 10/300 GL in 20 mM HEPES-NaOH pH 7.4, 100 mM NaCl; fractions blotted with anti-GATA4

B1: Full length GATA4 produced by E. coli (natural protein)
chain: not shown
notes: GATA4, full length; also called purified GATA4; recombinant GATA4; source: E. coli BL21 DE3, purified (Glutathione-Sepharose 4B, GST removed with HRV3C protease)
- stoichiometry N: ~8
